Results as given in patent publication US5147794.

System: KasI restriction endonuclease (recombinant, cell extract) (Kluyvera ascorbata)
Assay: cleavage_in_vitro
Details: lambda DNA, 37 C, 1 h; nearly 10^6

Q: “GGCGCC (double strand) [KasI recognition site (lambda DNA)]” was tested. Which activity (units per gram of cells) did it give?
A: Its activity (units per gram of cells) is 1e+06.
